PMC4293902, “Biochemical and structural characterization of the apicoplast dihydrolipoamide dehydrogenase of Plasmodium falciparum” (Bioscience Reports, 2015)

Assays:
[1] = target: Plasmodium falciparum apicoplast dihydrolipoamide dehydrogenase (PfaE3), recombinant mature-length, N-terminal His-tag (Plasmodium falciparum 3D7); experiment: AUC; sedimentation equilibrium, 17000 rpm, 4°C, 4.7 to 22.7 μM PfaE3; 50 mM potassium phosphate, 250 mM NaCl, 2 mM EDTA, pH 7.4; interference optics, single species model in SEDPHAT
[2] = target: Plasmodium falciparum apicoplast dihydrolipoamide dehydrogenase (PfaE3), recombinant mature-length, N-terminal His-tag (Plasmodium falciparum 3D7); experiment: SAXS; EMBL beamline X33, DESY; 10°C; PfaE3 at 9, 8, 6, 5 and 4 μM; Guinier, p(r) and ab initio DAM with P2 symmetry
[3] = target: Plasmodium falciparum apicoplast dihydrolipoamide dehydrogenase (PfaE3), recombinant mature-length, N-terminal His-tag (Plasmodium falciparum 3D7); experiment: SEC; HiLoad 16/60 Superdex 200, calibrated; 50 mM potassium phosphate, 150 mM NaCl, 2 mM EDTA, pH 7.4; Ni-NTA eluate applied
purified protein [4] = substrate: NC(=O)CCCC[C@@H]1CCSS1; experiment: purified protein; assay type: biochemical, Plasmodium falciparum; conditions: reverse reaction, 200 μM NADH, 50 mM potassium phosphate, 1 mM EDTA, pH 7, 25°C
purified protein [5] = substrate: NC(=O)c1ccc[n+]([C@@H]2O[C@H](COP(=O)(O)OP(=O)(O)OC[C@H]3O[C@@H](n4cnc5c(N)ncnc54)[C@H](O)[C@@H]3O)[C@@H](O)[C@H]2O)c1; experiment: purified protein; assay type: biochemical, Plasmodium falciparum; conditions: forward reaction, 2 mM DHLA, 50 mM potassium phosphate, 1 mM EDTA, pH 8, 25°C
purified protein [6] = substrate: NC(=O)CCCC[C@@H](S)CCS; experiment: purified protein; assay type: biochemical, Plasmodium falciparum; conditions: forward reaction, 2 mM NAD+, 50 mM potassium phosphate, 1 mM EDTA, pH 8, 25°C
purified protein [7] = substrate: NC(=O)C1=CN([C@@H]2O[C@H](COP(=O)(O)OP(=O)(O)OC[C@H]3O[C@@H](n4cnc5c(N)ncnc54)[C@H](O)[C@@H]3O)[C@@H](O)[C@H]2O)C=CC1; experiment: purified protein; assay type: biochemical, Plasmodium falciparum; conditions: reverse reaction, 2 mM lipoamide, 50 mM potassium phosphate, 1 mM EDTA, pH 7, 25°C

| stoichiometry N [1] | stoichiometry N [2] | stoichiometry N [3] | Molecule | Km (purified protein [4]) [µM] | kcat (purified protein [4]) [s⁻¹] | Km (purified protein [5]) [µM] | kcat (purified protein [5]) [s⁻¹] | Km (purified protein [6]) [µM] | kcat (purified protein [6]) [s⁻¹] | Km (purified protein [7]) [µM] | kcat (purified protein [7]) [s⁻¹] |
| --- | --- | --- | --- | --- | --- | --- | --- | --- | --- | --- | --- |
| 2 | 2 | 2 | Plasmodium falciparum apicoplast dihydrolipoamide dehydrogenase (PfaE3), recombinant mature-length, N-terminal His-tag (enzyme) |  |  |  |  |  |  |  |  |
|  |  |  | PfaE3 (P. falciparum apicoplast E3, dihydrolipoamide dehydrogenase) (Plasmodium falciparum 3D7) (protein, mature-length, apicoplast-targeting peptide removed; given as 110-667 in Results but 118-667 in Methods (forward primer at nt 331, i.e. codon 111); N-terminal 6-His tag kept (pQE30), expressed in E. coli NovaBlue (DE3); about 64 kDa, homodimer 128 kDa; 566 residues with tag; some C-terminally truncated form present) LKGSTQNIMNINEKEYDLAIIGCGVGGHAAAINAMERNLKVIIFAGDENCIGGTCVNVGCIPSKALLYATNKYRELKNLDKLYYYGIHSNIFQNNKNTEIENNQLVSNSFQINITKLKEYTQSVIDKLRNGISHGFKTLKFNKNSEHVQVIYEHGQLLDKNTIKSKKSGNTYKVKNIIIATGSVPNIPNNVEIDDKSVFTSDMAVKLVGLKNYMSIIGMGIIGLEFADIYTALGSEITFLEYSSELLPIIDNDVAKYFERVFLKNKPVNYHLNTEVKYIKASKNNNPVIIGYSHRTGNDDNEKKNMTDVKELYVDSCLVATGRNPNTQNLGLEKLKIQMNRGYVSVNDNLQVKMENNEIYDNIFCIGDANGKQMLAHTASYQALKVIDFIEKKEKKNVNINVENNLSKPILYKNIPSVCYTNPELAFIGLTEKEAKVLYPDNVGVEISYYKSNSKILCENNISLNNNKKNNSYNKGQYNINDNTNGMVKIIYKEDTKEILGMFIVGNYASVLIHEAVLAINLKLSAFDLAYMVHSHPTVSEVLDTAFKSISKIRTH | 841 ± 97 | 97 | 96 ± 12 | 110 | 1160 ± 105 | 110 | 15 ± 2 | 77.8 |
